type: physicochemical; details: about 2.5±1.0 mg/mL conjugate in 10 mM PBS buffer (pH=7.4), 37° C., shaker 100 rpm; […]; average release of free drug per day

In the case of “conjugate of N-(4-(aminomethyl)phenyl)-4-(((3R,4R)-1-(2-cyanoacetyl)-4-methylpiperidin-3-yl)(methyl)amino)-7H-pyrrolo[2,3-d]pyrimidine-7-carbothioamide and HA [Example 23]”, the “Release rate (%/day)” value is reported as 1.01%/day.

same assay, conditions: about 2.5±1.0 mg/mL conjugate in 10 mM PBS buffer (pH=7.4), 37° C., shaker 100 rpm; daily ultrafiltration (30 k), free drug by HPLC; average release of free drug per day

Going from “conjugate between HA (Sodium hyaluronate) and [4-[[(3R,4R)-1-(2-cyanoacetyl)-4-methyl-3-piperidyl]-methyl-amino]pyrrolo[2,3-d]pyrimidin-7-yl]methyl 2-aminoacetate [Example 68]” to “conjugate between HA (Sodium hyaluronate) and [4-[[(3R,4R)-1-(2-cyanoacetyl)-4-methyl-3-piperidyl]-methyl-amino]pyrrolo[2,3-d]pyrimidin-7-yl]methyl 4-aminobutanoate [Example 69]”, the “Release rate (%/day)” value rises from 10.81%/day to 16.47%/day.

Compared with “conjugate of 2-azaspiro[3.3]heptan-6-yl-4-(((3R,4R)-1-(2-cyanoacetyl)-4-methylpiperidin-3-yl)(methyl)amino)-7H-pyrrolo[2,3-d]pyrimidine-7-carboxylate and HA [Example 73]”, “conjugate of 2-chloroethyl 4-[[(3R,4R)-1-(2-cyanoacetyl)-4-methyl-3-piperidyl]-methyl-amino]pyrrolo[2,3-d]pyrimidine-7-carboxylate and HA [Example 57]” is higher in “Release rate (%/day)” value: 1.90%/day for the first, 9.28%/day for the second.

With “conjugate of 3-((3R,4R)-3-((7-(6-amino-2-azaspiro[3.3]heptane-2-carbonyl)-7H-pyrrolo[2,3-d]pyrimidin-4-yl)(methyl)amino)-4-methylpiperidin-1-yl)-3-oxopropanenitrile and HA [Example 81]” the “Release rate (%/day)” value was 0.28%/day.

From patent US20230256106A1, “DRUG DELIVERY SYSTEM FOR LOCALLY DELIVERING THERAPEUTIC AGENTS AND USES THEREOF” (priority 2020, published 2023)
